Experimental data: patent US7449563B2, “Methods and compositions for destabilizing microtubules” (Academia Sinica, priority 2003, dated 2008)
“Also recorded” adds a separate entry of the source. No end group written: not given here.

Assays:
[1] = molecular target: T1, polymerized microtubules (bovine brain tubulin) (Bos taurus, UniProt P81947+Q6B856); test: Microtubule depolymerization assay (centrosomes omitted); assay type: biochemical; details: centrosomes absent; nocodazole 15 μM as positive control; data not shown
T1 construct: containing 125 μg bovine brain tubulin (Cytoskeleton, Denver, Colo.); purchased Cytoskeleton, Denver, Colo; host or cells: bovine brain (tissue-purified)
Experimental: Microtubule Depolymerization Assay
In this assay, centrosomes are omitted from the above reaction mixtures to determine the effects of various truncated GST-CPAP proteins or synthetic peptides on microtubule polymerization in the absence of centrosomes. Polymerized microtubules were stained using FITC-conjugated anti-α-tubulin monoclonal antibodies, as above. Nocodazole (15 μM) was added to some reactions mixtures as a positive control for microtubule depolymerization.

[2] = test system: HeLa cells; test: Cell-based assay for CPAP activity: microtubule reassembly in cold-treated transfected HeLa cells; parameters: species or system human; details: transiently transfected HeLa cells
Experimental: Cell Culture and Transfection
HeLa cells were maintained in DMEM supplemented with 10% fetal bovine serum. cDNA clones encoding different portions of CPAP were subcloned, in an appropriate reading frame, into the CMV promoter-driven EGFP-C1 expression vector (Clontech, Palo Alto, Calif.). Transient transfections were performed using Lipofectamine 2000 (Invitrogen, Carlsbad, Calif.) according to the manufacturer's instructions.
Cold Treatment, Immunofluorescence and Confocal Microscopy
HeLa cells were grown on coverslips for at least 24 hr. Cold treatment was performed by incubating the cells at 4° C. for 1 hr, then replacing the cold medium with medium warmed to 30° C. and incubating the cells for 2 min at 30° C. The cells were then fixed with 1% formaldehyde for 30 min at room temperature.
The fixed cells were incubated in the presence of anti-α-tubulin monoclonal antibodies (N356, Amersham, Piscataway, N.J.) and anti-γ-tubulin polyclonal antibodies (Sigma, Saint Louis, Mo.). Bound anti-α-tubulin monoclonal antibodies (N356) were detected with Alexa 568, a Texas Red-conjugated goat anti-mouse IgG, or Alexa 647, a far-red fluorophore-conjugated goat anti-mouse IgG. Bound anti-γ-tubulin polyclonal antibodies were detected with Alexa 568 (Molecular Probes Inc.). The resulting […] signals were detected using a laser scanning confocal system (MRC 1000, Bio-Rad Laboratories, Hercules, Calif.).
The effect of various polypeptides derived from CPAP was determined by evaluating the amounts of mitotic spindle formation in the transfected cells. Decreased mitotic spindle formation indicated the presence of an activity that inhibited microtubule formation or destabilized microtubules.

[3] = molecular target: T2, microtubule nucleation from purified centrosomes (bovine brain tubulin) (Bos taurus, UniProt P81947+Q6B856); test: In vitro centrosome-dependent microtubule nucleation assay; assay type: biochemical; details: for Inhibition of microtubule nucleation/assembly from purified centrosomes (in words): in vitro
T2 construct: containing 125 μg bovine brain tubulin (Cytoskeleton, Denver, Colo.); purchased Cytoskeleton, Denver, Colo; host or cells: bovine brain (tissue-purified)
Experimental: In vitro Centrosome-Dependant Microtubule Nucleation Assay
Isolation of centrosomes and microtubule nucleation tests were performed as described (Hung et al., 2000). To investigate the effect of different GST-truncated CPAP fusion proteins on microtubule nucleation, purified centrosomes (4 μl per reaction) were pre-incubated with the various truncated GST-CPAP fusion proteins or FPLC purified synthetic peptides for 10 min at 4° C. The reaction mixtures were then incubated in 65 μl RG1 buffer (80 mM PIPES, pH 6.8, 1 mM EGTA, 1 mM MgCl2, and 1 mM GTP) containing 125 μg bovine brain tubulin (Cytoskeleton, Denver, Colo.) for 4 min at 37° C.
Microtubules present in the reaction mixtures were fixed in 200 μl 1% glutaraldehyde in RG1 buffer, sedimented onto acid-treated coverslips, and subjected to immunofluoresence analysis using anti-α-tubulin monoclonal antibodies N356 (Amersham, Piscataway, N.J.) or FITC-conjugated anti-α-tubulin monoclonal antibodies (DM1A-FITC; Sigma, Saint Louis, Mo.). Truncated GST-CPAP proteins were detected using an anti-GST polyclonal antibody (Molecular Probes, Cincinnati, Ohio). The extent of microtubule assembly in each reaction was determined microscopically by comparing the extent of microtubule formation on each coverslip. Decreased microtubule formation in reactions comprising polypeptides derived from CPAP indicated the ability of such polypeptides to inhibit centrosome-dependent microtubule assembly.

T1 sequence (P81947 whole entry): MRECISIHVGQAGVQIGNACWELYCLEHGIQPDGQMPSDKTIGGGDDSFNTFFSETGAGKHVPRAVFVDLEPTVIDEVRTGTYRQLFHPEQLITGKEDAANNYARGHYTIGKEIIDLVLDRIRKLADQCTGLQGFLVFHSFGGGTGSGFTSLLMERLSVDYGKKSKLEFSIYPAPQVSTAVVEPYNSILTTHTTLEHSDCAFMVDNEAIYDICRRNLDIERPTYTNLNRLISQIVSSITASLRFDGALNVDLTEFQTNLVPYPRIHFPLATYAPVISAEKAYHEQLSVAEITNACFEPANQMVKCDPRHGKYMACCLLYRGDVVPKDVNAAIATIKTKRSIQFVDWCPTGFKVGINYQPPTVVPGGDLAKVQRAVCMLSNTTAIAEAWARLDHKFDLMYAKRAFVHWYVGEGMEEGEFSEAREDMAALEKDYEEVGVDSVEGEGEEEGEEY
T1 sequence (Q6B856 whole entry): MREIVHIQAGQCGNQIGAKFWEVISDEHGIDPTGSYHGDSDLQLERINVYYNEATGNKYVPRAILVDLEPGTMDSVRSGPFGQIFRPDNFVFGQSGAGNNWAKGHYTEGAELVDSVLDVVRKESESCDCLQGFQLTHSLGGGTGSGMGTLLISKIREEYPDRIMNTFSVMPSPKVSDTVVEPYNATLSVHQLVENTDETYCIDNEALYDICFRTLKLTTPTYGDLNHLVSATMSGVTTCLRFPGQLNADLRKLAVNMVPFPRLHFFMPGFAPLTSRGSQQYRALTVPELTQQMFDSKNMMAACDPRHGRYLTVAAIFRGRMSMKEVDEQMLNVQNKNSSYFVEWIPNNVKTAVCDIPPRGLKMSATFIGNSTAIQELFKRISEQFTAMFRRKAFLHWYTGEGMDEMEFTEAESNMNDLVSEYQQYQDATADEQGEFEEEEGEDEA
T2 sequence (P81947 whole entry): as the sequence (P81947 whole entry) above
T2 sequence (Q6B856 whole entry): as the sequence (Q6B856 whole entry) above

Disassembly of polymerized microtubules in the absence of centrosomes (in words) [1] | Molecule | Inhibition of microtubule reassembly in cold-treated mitotic cells (in words) [2] | other results
no such effect | GST-PN2-1: GST fusion polypeptide with sub-region PN2-1 of PN2 (CPAP residues 132-190 per b157) (EFKEGAYKDPLFKKLEQLKEVQQKKQEQLKRQQLEQLQRLMEEQEKLLTMVSGQCTLPG; also: GST fusion, terminus not given here) | – | –
– | GFP-PN2-2: GFP-tagged CPAP residues 191-310 (protein, UniProt Q9HC77 191-310, looked up, fragment, GFP tag) LSLLPDDQSQKHRSPGNTTTGERATCCFPSYVYPDPTQEETYPSNILSHEQSNFCRTAHGDFVLTSKRASPNLFSEAQYQEAPVEKNNLKEENRNHPTGESILCWEKVTEQIQEANDKNL | no significant inhibition | –
– | GFP-A5M2: GFP-tagged CPAP residues 607-1070 (protein, UniProt Q9HC77 607-1070, looked up, fragment, GFP tag) ICKGHRMSSTPVKAVPQKTNPADPISHCNRSEDLDHTAREKESECEVAPKQLHSLSSADELREQPCKIRKAVQKSTSENQTEWNARDDEGVPNSDSSTDSEEQLDVTIKPSTEDRERGISSREDSPQVCDDKGPFKDTRTQEDKRRDVDLDLSDKDYSSDESIMESIKHKVSEPSRSSSLSLSKMDFDDERTWTDLEENLCNHDVVLGNESTYGTPQTCYPNNEIGILDKTIKRKIAPVKRGEDLSKSRRSRSPPTSELMMKFFPSLKPKPKSDSHLGNELKLNISQDQPPGDNARSQVLREKIIELETEIEKFKAENASLAKLRIERESALEKLRKEIADFEQQKAKELARIEEFKKEEMRKLQKERKVFEKYTTAARTFPDKKEREEIQTLKQQIADLREDLKRKETKWSSTHSRLRSQIQMLVRENTDLREEIKVMERFRLDAWKRAEAIESSLEVEKKDK | no significant inhibition | –
disassembled | GST-CM: GST fusion polypeptide corresponding to amino acid residues 132-607 of CPAP (protein, left off: a dimerising Fc or GST, GST fusion polypeptide corresponding to amino acid residues 132-607 of CPAP) EFKEGAYKDPLFKKLEQLKEVQQKKQEQLKRQQLEQLQRLMEEQEKLLTMVSGQCTLPGLSLLPDDQSQKHRSPGNTTTGERATCCFPSYVYPDPTQEETYPSNILSHEQSNFCRTAHGDFVLTSKRASPNLFSEAQYQEAPVEKNNLKEENRNHPTGESILCWEKVTEQIQEANDKNLQKHDDSSEVANIEERPIKAAIGERKQTFEDYLEEQIQLEEQELKQKQLKEAEGPLPIKAKPKQPFLKRGEGLARFTNAKSKFQKGKESKLVTNQSTSEDQPLFKMDRQQLQRKTALKNKELCADNPILKKDSKARTKSGSVTLSQKPKMLKCSNRKSLSPSGLKIQTGKKCDGQFRDQIKFENKVTSNNKENVTECPKPCDTGCTGWNKTQGKDRLPLSTGPASRLAAKSPIRETMKESESSLDVSLQKKLETWEREKEKENLELDEFLFLEQAADEISFSSNSSFVLKILERDQQI | – | Inhibition of microtubule nucleation/assembly from purified centrosomes (in words) [3]: inhibited
– | GFP-CM: GFP-tagged CPAP residues 132-607, expressed from a transfected vector (protein, UniProt Q9HC77 132-607, looked up, fragment, GFP tag, GFP-tagged CPAP residues 132-607, expressed from a transfected vector) EFKEGAYKDPLFKKLEQLKEVQQKKQEQLKRQQLEQLQRLMEEQEKLLTMVSGQCTLPGLSLLPDDQSQKHRSPGNTTTGERATCCFPSYVYPDPTQEETYPSNILSHEQSNFCRTAHGDFVLTSKRASPNLFSEAQYQEAPVEKNNLKEENRNHPTGESILCWEKVTEQIQEANDKNLQKHDDSSEVANIEERPIKAAIGERKQTFEDYLEEQIQLEEQELKQKQLKEAEGPLPIKAKPKQPFLKRGEGLARFTNAKSKFQKGKESKLVTNQSTSEDQPLFKMDRQQLQRKTALKNKELCADNPILKKDSKARTKSGSVTLSQKPKMLKCSNRKSLSPSGLKIQTGKKCDGQFRDQIKFENKVTSNNKENVTECPKPCDTGCTGWNKTQGKDRLPLSTGPASRLAAKSPIRETMKESESSLDVSLQKKLETWEREKEKENLELDEFLFLEQAADEISFSSNSSFVLKILERDQQI | significantly inhibited microtubule reassembly | –
disassembled | peptide M: synthetic peptide, amino acid residues 320-390 of CPAP (SEQ ID NO:1) (peptide, listed as Homo sapiens) ANIEERPIKAAIGERKQTFEDYLEEQIQLEEQELKQKQLKEAEGPLPIKAKPKQPFLKRGEGLARFTNAKS | – | Effect of synthetic peptide on centrosome-dependent microtubule nucleation (in words) ([3]; 20 μM or 40 μM peptide): inhibited centrosome-dependent microtubule nucleation in a dose dependent manner
– | GFP-A5N: GFP-tagged CPAP residues 423-607 (protein, UniProt Q9HC77 423-607, looked up, fragment, GFP tag) KTALKNKELCADNPILKKDSKARTKSGSVTLSQKPKMLKCSNRKSLSPSGLKIQTGKKCDGQFRDQIKFENKVTSNNKENVTECPKPCDTGCTGWNKTQGKDRLPLSTGPASRLAAKSPIRETMKESESSLDVSLQKKLETWEREKEKENLELDEFLFLEQAADEISFSSNSSFVLKILERDQQI | no significant inhibition | –
– | GFP-PN1: GFP-tagged CPAP residues 1-132 (protein, UniProt Q9HC77 1-132, looked up, fragment, GFP tag) MFLMPTSSELNSGQNFLTQWMTNPSRAGVILNRGFPILEADKEKRAAVDISTSFPIKGTHFSDSFSFINEEDSLLEEQKLESNNPYKPQSDKSETHTAFPCIKKGPQVAACHSAPGHQEENKNDFIPDLASE | no significant inhibition | –
– | GFP-A5C: GFP-tagged CPAP residues 1070-1338 (protein, UniProt Q9HC77 1070-1338, looked up, fragment, GFP tag) KLANTSVRFQNSQISSGTQVEKYKKNYLPMQGNPPRRSKSAPPRDLGNLDKGQAASPREPLEPLNFPDPEYKEEEEDQDIQGEISHPDGKVEKVYKNGCRVILFPNGTRKEVSADGKTITVTFFNGDVKQVMPDQRVIYYYAAAQTTHTTYPEGLEVLHFSSGQIEKHYPDGRKEITFPDQTVKNLFPDGQEESIFPDGTIVRVQRDGNKLIEFNNGQRELHTAQFKRREYPDGTVKTVYANGHQETKYRSGRIRVKDKEGNVLMDTEL | no significant inhibition | –
disassembled | GST-PN2-3: GST fusion polypeptide corresponding to residues 311-422 of CPAP (protein, left off: a dimerising Fc or GST, GST fusion polypeptide corresponding to residues 311-422 of CPAP) QKHDDSSEVANIEERPIKAAIGERKQTFEDYLEEQIQLEEQELKQKQLKEAEGPLPIKAKPKQPFLKRGEGLARFTNAKSKFQKGKESKLVTNQSTSEDQPLFKMDRQQLQR | – | Inhibition of microtubule nucleation/assembly from purified centrosomes (in words) [3]: possessed the ability to inhibit microtubule assembly; also recorded: greatest level of inhibition

Molecule | Disassembly of polymerized microtubules in the absence of centrosomes (in words) [1] | Inhibition of microtubule reassembly in cold-treated mitotic cells (in words) [2] | other results
COC(=O)Nc1nc2ccc(C(=O)c3cccs3)cc2[nH]1 [nocodazole, Nocodazole, reference compound] | disassembled | – | –
